Test results reported in patent US20040161746A1 (published 2004).

T1: B1153 protein (human, UniProt Q96JG6 1-964)
T1 construct: also called indicator protein
T1 sequence: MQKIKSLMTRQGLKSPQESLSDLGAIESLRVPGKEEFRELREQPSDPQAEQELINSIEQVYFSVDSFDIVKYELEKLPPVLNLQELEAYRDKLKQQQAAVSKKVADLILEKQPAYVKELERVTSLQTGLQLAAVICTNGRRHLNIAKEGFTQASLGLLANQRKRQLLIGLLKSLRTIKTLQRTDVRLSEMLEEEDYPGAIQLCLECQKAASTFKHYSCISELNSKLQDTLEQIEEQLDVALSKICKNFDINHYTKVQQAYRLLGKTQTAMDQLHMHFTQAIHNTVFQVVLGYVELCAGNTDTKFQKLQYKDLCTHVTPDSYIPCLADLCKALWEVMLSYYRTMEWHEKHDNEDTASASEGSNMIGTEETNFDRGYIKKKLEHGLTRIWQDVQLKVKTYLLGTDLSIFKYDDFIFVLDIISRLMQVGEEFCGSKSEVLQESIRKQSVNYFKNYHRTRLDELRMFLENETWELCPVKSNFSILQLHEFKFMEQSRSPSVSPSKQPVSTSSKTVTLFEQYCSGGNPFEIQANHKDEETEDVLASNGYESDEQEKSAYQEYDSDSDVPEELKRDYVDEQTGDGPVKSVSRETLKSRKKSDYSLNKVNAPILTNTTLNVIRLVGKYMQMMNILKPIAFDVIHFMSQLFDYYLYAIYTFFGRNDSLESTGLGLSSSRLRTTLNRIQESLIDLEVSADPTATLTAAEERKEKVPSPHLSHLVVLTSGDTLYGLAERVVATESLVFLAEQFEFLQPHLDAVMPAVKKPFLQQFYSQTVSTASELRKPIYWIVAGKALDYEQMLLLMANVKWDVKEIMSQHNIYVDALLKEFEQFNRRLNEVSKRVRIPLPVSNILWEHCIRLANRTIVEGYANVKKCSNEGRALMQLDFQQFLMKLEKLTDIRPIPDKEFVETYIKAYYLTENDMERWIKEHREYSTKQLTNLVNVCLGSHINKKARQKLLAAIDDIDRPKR

B1: myosin binding subunit 85 partial sequence, Prey-No. 3 (590 aa to 782 aa) (other, human, UniProt Q9BZL4 590-782, looked up)
chain: PSRRPRVPGVENSDSPAQRAEAPDGQGPGPQAAREHRKVGKEWRGPAEGEEAEPADRSQESSTLEGGPSARRQRWQRDLNPEPEPESEEPDGGFRTLYAELRRENERLREALTETTLRLAQLKVELERATQRQERFAERPALLELERFERRALERKAAELEEELKALSDLRADNQRLKDENAALIRVISKLSK
notes: range 590-782; Prey clone from a Human Brain cDNA library in the yeast two-hybrid system
B2: myosin binding subunit 85 partial sequence, Prey-No. 4 (590 aa to 782 aa) (other, human, UniProt Q9BZL4 590-782, looked up)
chain: B1 chain
notes: range 590-782; Prey clone from a Human Brain cDNA library; It has the same amino acid range as Prey-No. 3 and differs only in 3'-UTR length; The prey fusion domain is not described
B3: myosin binding subunit 85 partial sequence, Prey-No. 11 (656 aa to 782 aa) (other, human, UniProt Q9BZL4 656-782, looked up)
chain: GPSARRQRWQRDLNPEPEPESEEPDGGFRTLYAELRRENERLREALTETTLRLAQLKVELERATQRQERFAERPALLELERFERRALERKAAELEEELKALSDLRADNQRLKDENAALIRVISKLSK
notes: range 656-782; Prey clone from a Human Brain cDNA library; The prey fusion domain is not described

Molecular target: T1, B1153 protein
Experiment: yeast two-hybrid (PROQUEST, GAL4), B1153 full-length ORF as bait, Human Brain cDNA library prey
Description: By the PROQUEST™ TWO-Hybrid system (Invitrogen) utilizing the in vivo gene expression system of GAL4 series yeast, a search for a protein that interacts with the protein of this invention was carried out. Screening for a protein that interacts with B1153 was conducted for the Human Brain cDNA library with the full-length ORF region (86 bp to 2977 bp) of the B1153 gene as a bait. In this case, protocol according to the manual attached to the system was used.

Binder	binding result
B1	binds
B2	binds
B3	binds
